Target: T1, mini cellulose-binding protein A (mCbpA), P38058
T1 chain: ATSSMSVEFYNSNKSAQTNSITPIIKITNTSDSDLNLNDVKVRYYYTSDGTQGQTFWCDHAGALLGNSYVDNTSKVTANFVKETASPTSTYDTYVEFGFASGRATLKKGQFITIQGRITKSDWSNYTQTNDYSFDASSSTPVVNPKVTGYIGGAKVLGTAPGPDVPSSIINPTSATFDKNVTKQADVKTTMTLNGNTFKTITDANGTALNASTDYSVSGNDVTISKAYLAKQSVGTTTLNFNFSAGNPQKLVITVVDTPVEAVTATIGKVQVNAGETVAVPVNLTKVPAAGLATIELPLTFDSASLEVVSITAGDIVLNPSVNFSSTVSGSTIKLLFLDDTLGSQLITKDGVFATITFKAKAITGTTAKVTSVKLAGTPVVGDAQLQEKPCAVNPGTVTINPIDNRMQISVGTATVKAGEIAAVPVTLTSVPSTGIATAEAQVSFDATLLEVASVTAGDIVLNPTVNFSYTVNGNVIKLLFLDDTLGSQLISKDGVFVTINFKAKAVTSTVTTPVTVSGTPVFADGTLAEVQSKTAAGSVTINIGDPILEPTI

B1: arabinose isomerase (LsAraA) linked with the dockerin module of the endo-β-1,4-glucanase B gene (protein)
chain: SLSARVSFKKHVKKGVFIMLNTENYEFWFVTGSQSLYGEETLRSVEKDAKEIVEKLNASRQLPYPIVFKLVATTADNITKVMKEANYNDHVAGVITWMHTFSPAKNWIRGTKLLQKPLLHLATQFLNKIPYDTIDFDYMNLNQSAHGDREYAFINARLRKNNKIISGYWGDEDVQKAMAKWMDVAVAYNESFKIKVVTFADKMRNVAVTDGDKVEAQIKFGWTVDYWGVGDLVAEVNAVSEADIDAKYADLQKEYDFVEGQNTPEKFEHNVKYQIREYFGLKKFMDDRGYTAFTTNFEDLVGLEQLPGLAAQLLMAEGYGFAGEGDWKTAALDRLLKIMAHNEKTVFMEDYTLDLRQGHEAILGSHMLEVDPSIASDKPRVEVHPLDIGDKDDPARLVFTGMQGDAVDVTMADYGDEFKLMSYDVRGNKPEADTPHLPVAKQLWTPKQGLREGAVGWLTVGGGHHTVLSFAVDSEQLQDLSHLFDLTYVNIKTQTQTSYSLGDVNKDGKVNAIDYAVLKSILLGTNTNVDLSVSDMNKDGKVNALDLAVLKKMLLS
tagatose conversion activity using galactose as a substrate: the degradation activity was increased in the order of mCbpA (M), arabinose isomerase (LsAraA, L) and arabinose isomerase-mCbpA (LM)
